Measurements as given in PMC7482061.

Legend:
Experiment in all cases: SEC; Superdex S200 10/300 GL, buffer A (20 mM Tris-HCl pH 7.5, 18% glycerol) with 150 mM NaCl; mass from calibration with standard proteins; quaternary structure of the purified protein
[1] = molecular target: FdpA (CD1157), class A flavodiiron protein of Clostridioides difficile (Clostridioides difficile)
[2] = molecular target: revRbr1 (CD1474), reverse rubrerythrin 1 of Clostridioides difficile (Clostridioides difficile (strain 630Δerm genomic DNA))
[3] = molecular target: revRbr2 (CD1524), reverse rubrerythrin 2 of Clostridioides difficile (Clostridioides difficile (strain 630Δerm genomic DNA))

“FdpA (CD1157), class A flavodiiron protein of Clostridioides difficile (enzyme)” was tested, and the stoichiometry N [1] was 2.
“revRbr1 (CD1474), reverse rubrerythrin 1 of Clostridioides difficile (enzyme)” was tested, and the stoichiometry N [2] was 4.
“revRbr2 (CD1524), reverse rubrerythrin 2 of Clostridioides difficile (enzyme)” was tested, and the stoichiometry N [3] was 4.
